Results as given in patent publication US20210261965A1.

Target: Phosphatidylserine decarboxylase (PSD/PISD), purified
Test: microscale thermophoresis (MST), fluorescently labeled purified SMAC, Monolith-NT115

Sequence of Phosphatidylserine decarboxylase (PSD/PISD), purified (B1AKM7 whole entry): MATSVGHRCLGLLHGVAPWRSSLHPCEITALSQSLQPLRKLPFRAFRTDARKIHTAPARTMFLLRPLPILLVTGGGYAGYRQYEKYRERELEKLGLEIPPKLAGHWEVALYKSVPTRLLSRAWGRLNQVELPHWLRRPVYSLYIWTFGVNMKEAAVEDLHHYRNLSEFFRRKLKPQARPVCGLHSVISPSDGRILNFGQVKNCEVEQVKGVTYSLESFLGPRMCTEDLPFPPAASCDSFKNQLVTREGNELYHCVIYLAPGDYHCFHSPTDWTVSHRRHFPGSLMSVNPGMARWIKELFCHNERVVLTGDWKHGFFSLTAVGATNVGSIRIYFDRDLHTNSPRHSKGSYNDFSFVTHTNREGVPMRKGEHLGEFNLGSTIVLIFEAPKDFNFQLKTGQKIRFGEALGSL

Substance “purified SMAC/Diablo (second mitochondria-derived activator of caspase/direct inhibitor of apoptosis-binding protein with low pI) (from UniProt Q9NR28 56-239)” has a Kd of 100 nM.
